According to patent CN118388640A (CHENZHOU NO 1 PEOPLES HOSPITAL, dated 2024):

Target: T1, SARS-CoV-2 Wuhan-Hu-1 S蛋白 (Sino Biological，货号:40589-V08B1) (SARS-CoV-2 Wuhan-Hu-1, UniProt P0DTC2 14-1213)
T1 construct: extracellular domain
Assay: ELISA, S protein coated at 2 μg/mL, antibody at 1 μg/mL

B1: 抗新型冠状病毒SARS-CoV-2的广谱抗体(VSM12-37) (antibody, V domains shown)
VH: EVQLVESGGGLVQPGGSLRLSCAVSGFTVSSNYMSWVRQAPGKGLEWVSLIYSGGSTYYADSVKGRFTVSRDRSKNTLYLQMNSLRAEDTALYYCARDNPRVGSNYWGQGTLVTVSS
VL: DIQMTQSPSSLSASVGDRVTITCQASQDINNYLNWYQQKPGKAPKLLIYDASNLEAGVPSRFSGSGSGTDFTFTISSLQPEDIATYYCQQCDNVPLTFGGGTKVEIKR
notes: also called VSM12-37抗体
B1: binds.
